Assay [1] concerns the target Histidine-tagged INT-interacting MVP domains (His-iMVP), major vault protein domains 3 to 5. The experiment in a line: SEC; His-iMVP and His-INT mixed at equimolar ratio (70 μM), overnight at 4 °C, Superdex 75 10/300 GL; band densities of peak fractions on SDS-PAGE.
For assay [2] the target is unchanged. The experiment in a line: SPR; Biacore 3000, His-iMVP amine-coupled to CM5 (410, 1860 or 1240 RU), His-INT or variant injected, 25 °C, 50 mM PBS, 150 mM NaCl, pH 7.4; 1-to-1 Langmuir fit; apparent constants.

Several values for one entry are separate records, joined by “and”; a condition that tells them apart may be missing. Equal values may be shown once.

B1: Histidine-tagged vault-interacting domain of vault poly(ADP-ribose)-polymerase (His-INT) (domain or fragment)
chain: CIQHWQDAVPWTELLSLQTEDGFWKLTPELGLILNLNTNGLHSFLKQKGIQSLGVKGRECLLDLIATMLVLQFIRTRLEKEGIVFKSLMKMDDASISRNIPWAFEAIKQASEWVRRTEGQYPSICPRLELGNDWDSATKQLLGLQPISTVSPLHRVLHYSQG
On to B1, for which, in assay [1], the stoichiometry N is 1 and 2. Also, in assay [2], the Kd came to 0.262 µM, the T1/2 stood at 13.9 min, the koff was 0.0006 s⁻¹ and the kon turned out to be 2280 M⁻¹ s⁻¹. Moreover, the stoichiometry N in assay [2] amounted to 1.

B2: His-INTΔC15 (His-INT with 15 amino acids deleted at the C terminus) (domain or fragment)
chain: CIQHWQDAVPWTELLSLQTEDGFWKLTPELGLILNLNTNGLHSFLKQKGIQSLGVKGRECLLDLIATMLVLQFIRTRLEKEGIVFKSLMKMDDASISRNIPWAFEAIKQASEWVRRTEGQYPSICPRLELGNDWDSATKQLLGLQPI
On to B2, for which, in assay [2], the Kd was 1.8 µM, the T1/2 is 9.4 min, the koff is 0.00089 s⁻¹ and the kon turned out to be 485 M⁻¹ s⁻¹. For the same molecule, the stoichiometry N in assay [2] came out at 1.
